Data published in publication PMC10547473.
Read-outs that look alike come from different tables or passages of the source.

With TFEB: 3xSA-TR (S134A, S138A, S142A) the localisation_or_trafficking (phosphorylation at S134) was “decreases”, the localisation_or_trafficking (phosphorylation at S138) was “decreases” and the localisation_or_trafficking (phosphorylation at S142) was “decreases”.
For “TFEB: 5xSA-TR (S122A, S134A, S138A, S142A, S211A)”, the localisation_or_trafficking (phosphorylation at S122) was “abolishes”, the localisation_or_trafficking (phosphorylation at S134) was “abolishes” and the localisation_or_trafficking (phosphorylation at S138) was “abolishes”. The localisation_or_trafficking (phosphorylation at S142) was “abolishes” and the localisation_or_trafficking (phosphorylation at S211) was “abolishes”.
